Measurements reported in patent publication US7803572B2, “Protease detection assay” (Atlas Genetics, Ltd., priority 2003, dated 2010).
Where two headings read alike, the source gives them in different places.

Assays:
carboxypeptidase = test: Digestion of Fc-BSA with carboxypeptidase, differential pulse voltammetry; format: biochemical
Procedure: (§1) Protease assays were performed as follows unless stated otherwise. […] Samples were incubated at 37° C. for 1 hour.
A digestion of Fc-BSA with carboxypeptidase was carried out as described above. […] The positive reaction has a peak position of 435 mV and a peak height of 1.31×10^−7 A; the no elastase control reaction has a peak position of 427 mV and a peak height of 6.86×10^−8 A.

trypsin = target: T1, trypsin (Sus scrofa, UniProt P00761); test: Amperometric analysis of trypsin digestion; format: biochemical, porcine; settings: amperometric time course trace
T1 construct: purchased Sigma; host or cells: porcine pancreas
T1 sequence (P00761 9-231): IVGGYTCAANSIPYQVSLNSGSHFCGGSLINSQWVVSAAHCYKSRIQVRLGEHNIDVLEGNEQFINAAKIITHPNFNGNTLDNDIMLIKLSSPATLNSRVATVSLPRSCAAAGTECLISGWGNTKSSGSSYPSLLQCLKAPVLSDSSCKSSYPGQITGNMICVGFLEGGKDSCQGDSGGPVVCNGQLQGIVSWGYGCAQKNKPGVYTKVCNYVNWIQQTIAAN
Procedure: Four digestion reactions were carried out with real-time amperometric analysis. […] Tryspin was resuspended in HCl (1 mM, pH 3.0), papain and carboxypeptidase were resuspended in NaCl (100 mM). […] The amperometry conditions were as set out in Tables 2 and 3.
In FIG. 17, there is shown the amperometric time course trace for the trypsin digestion of Fc-BSA. […] As the movement of the species present in the solution reaches a steady state, the current response appears to decay.
In FIG. 18, there is shown the amperometric time course trace for the papain digestion of FcU-BSA. […] As the movement of the species present in the solution reaches a steady state, the current response appears to decay. […] The amperometric time course trace for the trypsin digestion of FcU-BSA is not illustrated in the drawings but was analogous.

[1] = target: Bacillus thermoproteolyticus rokko thermolysin (Bacillus thermoproteolyticus, UniProt P00800); settings: for peak: no-thermolysin control reaction; for peak height / peak position: positive reaction
Bacillus thermoproteolyticus rokko thermolysin, sequence (P00800 233-548): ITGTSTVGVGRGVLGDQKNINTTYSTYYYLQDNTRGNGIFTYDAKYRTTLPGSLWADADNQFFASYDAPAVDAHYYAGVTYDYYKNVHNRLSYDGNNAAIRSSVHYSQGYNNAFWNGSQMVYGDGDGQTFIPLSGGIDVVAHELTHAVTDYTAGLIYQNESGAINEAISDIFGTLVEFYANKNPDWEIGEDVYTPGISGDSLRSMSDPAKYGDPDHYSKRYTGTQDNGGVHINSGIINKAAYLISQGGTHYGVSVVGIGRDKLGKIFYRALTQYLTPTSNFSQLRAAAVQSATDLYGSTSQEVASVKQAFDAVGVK
Procedure: The low volume cell of FIG. 1 was filled with approximately 10 ml sodium chloride solution (100 mM). A 200 μl aliquot of the sample for analysis was placed in the glass sample chamber which was then placed in the low volume cell along with the reference and counter electrodes. The electrodes were connected to the AUTOLAB electrochemical workstation and differential pulse voltammetry carried out using the parameters described in Table 1. Prior to analysis the glassy carbon working electrode was polished (using BAS polishing kit catalogue number MF-2060) followed by conditioning. Electrode conditioning consists of cyclic voltammetry, sweeping between +−1 volt in the appropriate background buffer.
Protease assays were performed as follows unless stated otherwise. Lyophilised enzymes were re-suspended to give a concentration of 10 mgml^−1. Enzymes were resuspended in the following solutions: HCl (1 mM, pH 3.0) (trypsin, α-chymotrypsin, pepsin), NaCl (100 mM) (proteinase K, elastase, papain, carboxypeptidase, thermolysin). 75 μl of Fc-BSA solution (0.3-0.6 mgml^−1) was used per reaction. Each reaction was carried out in a total volume of 200 μl and the reactions were performed in the following buffers (final concentrations are given): 100 mM tris HCl pH7.8 (trypsin, α-chymotrypsin, thermolysin, proteinase K); 100 mM tris HCl pH 8.5 (elastase); 200 mM sodium acetate, 200 mM cysteine, 20 mM EDTA (papain); 10 mM HCl pH 2.0 (pepsin); 25 mM tris HCl pH7.5, 500 mM NaCl (carboxypeptidase). 2 μl enzyme (10 mgml^−1) was added to the […] reaction mixture. Samples were incubated at 37° C. for 1 hour. The reaction products were analysed by differential pulse voltammetry as described in Example 1.
Baseline corrected data was obtained using GPES MANAGER (Ecochemie BV, Utrecht, Netherlands) selecting baseline correction from the edit data menu, selecting moving average, minimum peak width 0.003V.
A digestion of Fc-BSA with thermolysin was carried out as described above with the digestion incubation at 37° C.
A digestion of Fc-BSA with thermolysin was carried out as described above with the digestion incubation at 70° C.

porcine pancreas trypsin = target: T2, porcine pancreas trypsin (Sus scrofa, UniProt P00761); test: Digestion of labelled protein with trypsin, differential pulse voltammetry; format: biochemical
T2 construct: purchased Sigma; host or cells: porcine pancreas
T2 sequence (P00761 9-231): as the sequence (P00761 9-231) above
Procedure: as §1
A digestion of Fc-BSA with trypsin was carried out as described above. […] The positive reaction has a peak position of 435 mV and a peak height of 4.58×10^−7 A; the no trypsin control reaction has a peak position of 432 mV and a peak height of 2.55×10^−8 A.
A digestion of unlabelled BSA with trypsin was carried out in the same manner as for the labelled molecules as described above. The differential pulse voltammogram results are shown in FIG. 10 in which (a) is the trace for a no-trypsin control reaction and (b) is the trace for trypsin BSA reaction.
A digestion of FcU-BSA with trypsin was carried out as described above. […] The positive reaction has a peak position of 97 mV and a peak height of 5.01×10^−7 A; there was no peak in the no-trypsin control reaction. […]
Five digestions of Fc-BSA with trypsin were carried out using the protocol described above. As described in the general protocol, 2 μl of enzyme was used for each 200 μl reaction; for reaction (i) 10 mg/ml enzyme solution was used; reaction (ii): 1 mg/ml; reaction (iii) 0.1 mg/ml; reaction (iv) 0.01 mg/ml and reaction (v) was a no-trypsin control. The differential pulse voltammogram results are shown in FIG. 14 with baseline correction.
Five digestions of Fc-BSA with trypsin were carried out using the protocol described above. In reaction (i) the incubation at 37° was carried out for 60 minutes, in reaction (ii) for 15 minutes, in reaction (iii) for 5 minutes, in reaction (iv) for 2 minutes and reaction (v) was a 0 minutes no-trypsin control. The differential pulse voltammogram results are shown in FIG. 15 with baseline correction.

[2] = target: T3, type II bovine pancreas α-chymotrypsin (Bos taurus, UniProt P00766); test: Digestion of Fc-BSA with α-chymotrypsin, differential pulse voltammetry; format: biochemical
T3 construct: purchased Sigma; host or cells: bovine pancreas
Procedure: as §1
A digestion of Fc-BSA with α-chymotrypsin was carried out as described above. […] The positive reaction has a peak position of 438 mV and a peak height of 4.48×10^−7 A; the no α-chymotrypsin control reaction has a peak position of 432 mV and a peak height of 2.55×10^−8 A.

[3] = positive reaction, 37° C. for 1 hour
[4] = Example 6 reaction (i): 2 μl of 10 mg/ml enzyme solution
[5] = Example 6 reaction (ii): 1 mg/ml enzyme solution
[6] = Example 6 reaction (iii): 0.1 mg/ml enzyme solution
[7] = Example 6 reaction (iv): 0.01 mg/ml enzyme solution
[8] = Example 6 reaction (v): no-trypsin control
[9] = Example 7 reaction (i): incubation at 37° for 60 minutes
[10] = Example 7 reaction (ii): 15 minutes
[11] = Example 7 reaction (iii): 5 minutes
[12] = Example 7 reaction (iv): 2 minutes
[13] = Example 7 reaction (v): 0 minutes no-trypsin control
[14] = positive reaction, 2 μl enzyme (10 mgml^−1), 37° C. for 1 hour
[15] = no α-chymotrypsin control reaction

Fc-BSA: Bovine serum albumin labelled with ferrocene methanoyl groups via N-hydroxysuccinimide ester; estimated 10 to 20 ferrocenes per BSA
peak height (carboxypeptidase; no elastase control reaction (so in the source)): 6.86×10^−8 A
peak height (carboxypeptidase; [3]): 1.31×10^−7 A
faradaic current response over time after addition of the enzyme (trypsin): increase in current
peak ([1]; 37° C.): no peak was found
peak ([1]; 70° C.): no peak was found
peak height ([1]; digestion incubation at 37° C.): 1.62×10^−8 A
peak position ([1]; digestion incubation at 37° C.): 429 mV
peak height ([1]; digestion incubation at 70° C.): 2.0×10^−8 A
peak position ([1]; digestion incubation at 70° C.): 455 mV
peak height (porcine pancreas trypsin; [4]): 5.42×10^−7 A
peak position (porcine pancreas trypsin; [4]): 430 mV
peak height (porcine pancreas trypsin; [5]): 2.29×10^−7 A
peak position (porcine pancreas trypsin; [5]): 428 mV
peak height (porcine pancreas trypsin; [6]): 1.04×10^−7 A
peak position (porcine pancreas trypsin; [6]): 429 mV
peak height (porcine pancreas trypsin; [7]): 7.53×10^8 A
peak position (porcine pancreas trypsin; [7]): 429 mV
peak height (porcine pancreas trypsin; [8]): 3.17×10^−9 A
peak position (porcine pancreas trypsin; [8]): 448 mV
peak height (porcine pancreas trypsin; [9]): 2.49×10^−7 A
peak position (porcine pancreas trypsin; [9]): 435 mV
peak height (porcine pancreas trypsin; [10]): 1.88×10^−7 A
peak position (porcine pancreas trypsin; [10]): 429 mV
peak height (porcine pancreas trypsin; [11]): 1.57×10^−7 A
peak position (porcine pancreas trypsin; [11]): 435 mV
peak height (porcine pancreas trypsin; [12]): 1.04×10^−7 A
peak position (porcine pancreas trypsin; [12]): 428 mV
peak height (porcine pancreas trypsin; [13]): 2.11×10^−8 A
peak position (porcine pancreas trypsin; [13]): 460 mV
peak height (porcine pancreas trypsin; no-trypsin control reaction): 2.55×10^−8 A
peak position (porcine pancreas trypsin; no-trypsin control reaction): 432 mV
peak height (porcine pancreas trypsin; [14]): 4.58×10^−7 A
peak position (porcine pancreas trypsin; [14]): 435 mV
factor by which current observed at 435 mV increases upon digestion (porcine pancreas trypsin; trypsin digestion vs no-trypsin control, FIG. 3): 18
peak height [2, 15]: 2.55×10^−8 A
peak position [2, 15]: 432 mV
peak height [2, 3]: 4.48×10^−7 A
peak position [2, 3]: 438 mV
